Key:
[1] = molecular target: T1, VEGF-A165 (human, UniProt P15692-4 27-191); assay: MST; TBSET: 10 mM Tris, 100 mM NaCl, 50 mM KCl, 0.05 mM EDTA, 0.05% Tween 20, pH 7; MST with 25 nM aptamer, 20 min at 20 C, read at room temperature; microarray in TBSETB (TBSET + 1% BSA), 1 h for the co-incubation; conditions: protein: recombinant, chain copies: 2
[2] = molecular target: T1, VEGF-A165; assay: MST; no binding curve over 5 fluorescence units; TBSET: 10 mM Tris, 100 mM NaCl, 50 mM KCl, 0.05 mM EDTA, 0.05% Tween 20, pH 7; MST with 25 nM aptamer, 20 min at 20 C, read at room temperature; microarray in TBSETB (TBSET + 1% BSA), 1 h for the co-incubation; conditions: protein: recombinant; chain copies: 2; label: 3' FITC
[3] = molecular target: T2, alpha-chymotrypsin (UniProt P00766;P00766;P00766 1-13;16-146;149-245); assay: capillary-scan TID (competition); up to 7.5 uM; complement did not dissociate; TBSET: 10 mM Tris, 100 mM NaCl, 50 mM KCl, 0.05 mM EDTA, 0.05% Tween 20, pH 7; MST with 25 nM aptamer, 20 min at 20 C, read at room temperature; microarray in T
[4] = molecular target: T2, alpha-chymotrypsin; assay: microarray TID (competition); 1 uM protein, 1000 pM cV7t1-Cy5: no decrease; TBSET: 10 mM Tris, 100 mM NaCl, 50 mM KCl, 0.05 mM EDTA, 0.05% Tween 20, pH 7; MST with 25 nM aptamer, 20 min at 20 C, read at room temperature; microarray in T

T1 sequence (P15692 other isoform, or with tags, fused parts or gaps): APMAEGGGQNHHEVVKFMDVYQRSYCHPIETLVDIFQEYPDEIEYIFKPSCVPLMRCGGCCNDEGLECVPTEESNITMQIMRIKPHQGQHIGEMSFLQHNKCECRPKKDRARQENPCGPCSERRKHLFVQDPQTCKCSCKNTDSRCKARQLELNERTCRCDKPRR

ATACCAGTCTATTCAATTGGGCCCGTCCGTATGGTGGGTGTGCTGGCCAG (ssDNA) [Del5-1-Cy5] was tested. Which Kd ([1]; label: 3' Cy5) did it give?
The Kd was 47 ± 18 nM.

Does CACTACAGAGGTTGCGTCTGTCCCACGTTGTCATGGGGGGTTGGCCTG (ssDNA) [Syl3C-FITC] bind [2]?
Result: no binding

For TGTGGGGGTGGACGGGCCGGGTAGATAGTATGTGCAATC (structured_DNA) [V7t1-Cy5], which Kd ([1]; label: 3' Cy5, G-quadruplex with three G-quartets) is on record?
Its Kd is 201 ± 28 nM.

How did the Kd ([1]; label: 5' FITC, G-quadruplex with three G-quartets) turn out when TGTGGGGGTGGACGGGCCGGGTAGATAGTATGTGCATTC (structured_DNA) [V7t1-FITC] was run?
Its Kd is 155 ± 55 nM.

B1: V7t1-FITC/cV7t1-Dabcyl (mixed)
DNA 1: TGTGGGGGTGGACGGGCCGGGTAGATAGTATGTGCATTC
DNA 2: CCGTCCACCCCC
modifications: 3' Dabcyl quencher on strand 2
Does B1 bind [3]?
Result: no binding

B2: V7t1-NH2/cV7t1-Cy5 (mixed)
DNA 1: TGTGGGGGTGGACGGGCCGGGTAGATAGTATGTGCATTC
DNA 2: CCGTCCACCCCC
modifications: 3' NH2 on strand 1, immobilized on aldehyde slide
Does B2 bind [4]?
Result: no binding

Source: article PMC6955894, “Development of Aptamer-Based TID Assays Using Thermophoresis and Microarrays”
